Values of other authors as cited in article PMC3437676.

Target: Asp25 (UniProt position 515, KEALLDTGADD)
Assay: NMR
Conditions: free model peptide

Which pKa does the source give for “HIV-1 protease model peptide, residues 20-30 (Human immunodeficiency virus 1)” here?
The pKa was “near 4.0”.
